Data as given in paper PMC10333884 (2023).
Non-standard residues stand in square brackets, D forms with d. No end group written: not given here. pS = N[C@@H](COP(=O)(O)O)C(=O)O

T1: TSG101 UEV (human, UniProt Q99816 2-145)
T1 chain: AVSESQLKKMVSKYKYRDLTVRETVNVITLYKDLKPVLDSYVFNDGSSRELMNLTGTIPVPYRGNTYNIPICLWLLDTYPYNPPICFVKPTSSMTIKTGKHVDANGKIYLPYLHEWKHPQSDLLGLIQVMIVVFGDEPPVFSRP

T2: Clathrin N‐terminal domain (NTD) (human, UniProt Q00610 1-364)
T2 chain: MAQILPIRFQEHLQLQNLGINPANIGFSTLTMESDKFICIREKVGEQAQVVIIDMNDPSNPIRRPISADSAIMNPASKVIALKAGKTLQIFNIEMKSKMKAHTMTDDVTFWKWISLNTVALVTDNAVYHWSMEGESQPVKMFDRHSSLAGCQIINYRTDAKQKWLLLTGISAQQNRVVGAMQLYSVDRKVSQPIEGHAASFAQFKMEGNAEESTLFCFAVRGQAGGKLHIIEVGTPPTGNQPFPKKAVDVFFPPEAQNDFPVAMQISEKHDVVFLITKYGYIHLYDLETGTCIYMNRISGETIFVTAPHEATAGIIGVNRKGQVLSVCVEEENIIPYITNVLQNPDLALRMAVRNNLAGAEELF

B1: CDC25C_(30–44), wild‐type (peptide)
chain: NLLLERDTSFTVCPD
B2: CDC25C_(30–44), phosphorylated (pS) (peptide)
chain: NLLLERDT[pS]FTVCPD
B3: CDC25C_(30–44), phosphomimetic (E) (peptide)
chain: NLLLERDTEFTVCPD
B4: DAXX_(606–616), wild‐type (peptide)
chain: GMVSSTSFNGG
B5: ATG4C_(444–458), phosphorylated (pS) (peptide)
chain: KKQLKRF[pS]TEEFVLL
B6: ATG4C_(444–458), wild‐type (peptide)
chain: KKQLKRFSTEEFVLL
B7: ATG4C_(444–458), phosphomimetic (E) (peptide)
chain: KKQLKRFETEEFVLL
B8: GJA1_(269–283), wild‐type (peptide)
chain: NGCSSPTAPLSPMSP
B9: PDCD6IP_(711–725), wild‐type (peptide)
chain: QSIAREPSAPSIPTP
B10: PIP4P2_(17–32), wild‐type (peptide)
chain: HSGNVTPTAPPYLQES
B11: pS839 HURP_(826–846) peptide (peptide)
chain: YRHISFGGNLITF[pS]PLQPGEF
B12: HURP_(832–846), wild‐type (peptide)
chain: GGNLITFSPLQPGEF
B13: pS839 HURP_(832–846) (peptide)
chain: GGNLITF[pS]PLQPGEF
B14: HURP_(832–846), phosphomimetic (E) (peptide)
chain: GGNLITFEPLQPGEF

These binders were tested against SNX27 PDZ (human, UniProt Q96L92 43-136) (assay: FP).

First: B1
Second: B2
The IC50 of the first is 4.8-fold lower: 210 µM for the first, 1000 µM for the second.

B3 and B4 are within 1.5-fold of each other in IC50: 1800 µM for the first, 1300 µM for the second.

What follows are binders tested against MAP1LC3A (human) (assay: FP).

Compared with B5, B6 is 3.1-fold higher in IC50: 5.5 µM for the first, 17 µM for the second.

In the case of B7, the IC50 is reported as 11 µM.

Molecular target: T1, TSG101 UEV
Assay: FP

First: B8
Second: B9
The IC50 of the first is 14-fold higher: 465 µM for the first, 34 µM for the second. The second is the more potent here.

Work on B10 yielded an IC50 of 29 µM.

Molecular target: T2, Clathrin N‐terminal domain (NTD)
Assay: FP

First: B11
Second: B12
The IC50 of the first is 29-fold lower: 11 µM for the first, 318 µM for the second.

First: B13
Second: B14
The IC50 of the first is 6.4-fold lower: 11 µM for the first, 70 µM for the second. The first is the more potent here.
